Assay results as given in PMC11623648.

Molecular target: Integrin αIIbβ3 (human (endogenous in platelets)) (UniProt P05106)
Experiment: cryo-EM structure

Question: “Integrin αIIbβ3 (from UniProt P05106 27-788) (complex)” was tested. Which stoichiometry N did it give?
Answer: The stoichiometry N was 2.
